The record followed here is patent CN114685674A.

This assay concerns the target VEGF165 (UniProt P15692). The experiment in a line: cell-based or functional assay.
UniProt P15692, sequence (P15692 other isoform, or with tags, fused parts or gaps): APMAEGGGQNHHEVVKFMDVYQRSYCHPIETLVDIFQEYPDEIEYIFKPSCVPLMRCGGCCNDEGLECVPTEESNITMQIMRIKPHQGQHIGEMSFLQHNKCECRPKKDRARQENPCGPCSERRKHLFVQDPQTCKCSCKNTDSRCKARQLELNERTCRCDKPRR

The substance Conbercept(康柏西普) (Fc fusion) displayed an HUVEC细胞增殖抑制 EC50 of 0.221 nM.
